# Assay results published in patent US12545899B2, “Luciferase enzymes for use with thermostable luciferins in bioluminescent assays” (Promega Corporation, priority 2018, dated 2026).
# Changes are numbered by the printed parent chain. In names and notes the source's numbering stands.
# B1: MK0149: SEQ ID NO: 115; H244W+S193A+N228D+L305F+S306P+I109V+C38R+F55I+Y108F+A316W+Y339M+T342S+V348I+C257R+T284A+T289S+L437R (protein)
# chain: MADKNILYGPEPFYPLEDGTAGEQMFDALSRYAAIPGRIALTNAHTKENVLYEEILKLSCRLAESFKKYGLKQNDTIAVCSENSLQFFLPVIASLYLGIIVAPVNDKFVERELIHSLGIVKPRIVFCSKNTFQKVLNVKSKLKSIETIIILDLNEDLGGYQCLNNFISQNSDSNLDVKKFKPYSFNRDDQVAAIMFSSGTTGLPKGVMLTHKNIVARFSIAKDPTFGDAINPTSAILTVIPFHWGFGMMTTLGYFTRGFRVVLMHTFEEKLFLQSLQDYKVESALLVPSLMAFLAKSALVEKYDFPHLKEIASGGWPLSKEIGEMVKKRFKLNFVRQGMGLSETTSAILITPKGDAKPGSTGKIVPLHAVKVVDPTTGKILGPNEPGELYFKGPMIMKGYYNNEEATKAIIDNDGWLRSGDIAYYDNDGHFYIVDRRKSLIKYKGYQVAPAEIEGILLQHPYIVDAGVTGIPDEAAGELPAAGVVVQTGKYLNEQIVQDYVASQVSTAKWLRGGVKFLDEIPKGSTGKIDRKVLRQMLEKHTNGHHHHHHHH
# B2: MK0152: SEQ ID NO: 117; H244W+S193A+N228D+L305F+S306P+I109V+C38R+F55I+Y108F+A316W+Y339M+T342S+V348I+C257R+K353R+L437R+W510R (protein)
# chain: B1 chain with R257C, A284T, K353R, D435G, R437L, W510R
# B3: MK0153: SEQ ID NO: 118; H244W+S193A+N228D+L305F+S306P+I109V+C38R+F55I+Y108F+A316W+Y339M+T342S+V348I+T289S+K353R+D435G+W510R (protein)
# chain: B1 chain with A284T, S313T, K353R, R437L
# B4: MK0155: SEQ ID NO: 120; H244W+S193A+N228D+L305F+S306P+I109V+C38R+F55I+Y108F+A316W+Y339M+T342S+V348I+T284A+S313T+K353R+L437R+W510R (protein)
# chain: B1 chain with R257C, S289T, S313T, K353R, W510R
# B5: MK0151: SEQ ID NO: 116; H244W+S193A+N228D+L305F+S306P+I109V+C38R+F55I+Y108F+A316W+Y339M+T342S+V348I+S313T+D435G+L437R (protein)
# chain: B1 chain with A284T, S289T, K353R, W510R
# B6: MK0156: SEQ ID NO: 121; H244W+S193A+N228D+L305F+S306P+I109V+C38R+F55I+Y108F+A316W+Y339M+T342S+V348I+C257R+T289S+S313T+K353R (protein)
# chain: B1 chain with R257C, K353R, D435G
# B7: MK0154: SEQ ID NO: 119; H244W+S193A+N228D+L305F+S306P+I109V+C38R+F55I+Y108F+A316W+Y339M+T342S+V348I+C257R+T284A+T289S+S313T+K353R+D435G+L437R+W510R (protein)
# chain: B1 chain with R257C, S313T, R437L, W510R
# Assay: Luminescence at 1 mM D/L-luciferin (Table 11)
# Type: biochemical
# Conditions: 1 mM substrate; 1 mM ATP; BrightGlo Buffer
# Text: (§1) Tables 10 and 11 include representative results of kinetic analysis of the thermostable variants with D/L luciferin, CS0333, and CS0280. […] MK0135 and MK0137 have amino acid substitutions that improve thermostability relative to MK0133 and MK0134, respectively, while retaining activity on the luciferin analogs CS0333 and CS0280.
row,Molecule,Vmax (RLU) D/L-luciferin BrightGlo Buffer
1,B1,"416,355 RLU"
2,B2,"954,983 RLU"
3,B3,"509,406 RLU"
4,B4,"851,342 RLU"
5,B5,"1,074,780 RLU"
6,B6,"796,344 RLU"
7,B7,"2,583,340 RLU"

# Same assay, conditions: 1 mM substrate; 1 mM ATP; Detection Reagent Buffer
row,Molecule,Vmax (RLU) D/L-luciferin Detection Reagent Buffer
1,B1,"52,341 RLU"
2,B2,"103,199 RLU"
3,B3,"78,859 RLU"
4,B4,"74,704 RLU"
5,B5,"249,347 RLU"
6,B6,"173,238 RLU"

# Assay: Luminescence at 1 mM CS0333 (Table 11)
# Type: biochemical
# Conditions: 1 mM substrate; 1 mM ATP; BrightGlo Buffer
# Text: as §1
row,Molecule,Vmax (RLU) CS0333 BrightGlo Buffer
1,B1,"1,433,640 RLU"
2,B2,"405,859 RLU"
3,B3,"3,768,010 RLU"
4,B4,"3,609,390 RLU"
5,B5,"8,608,150 RLU"
6,B6,"828,634 RLU"
7,B7,"2,374,950 RLU"

# Same assay, conditions: 1 mM substrate; 1 mM ATP; Detection Reagent Buffer
row,Molecule,Vmax (RLU) CS0333 Detection Reagent Buffer
1,B1,"1,270,240 RLU"
2,B2,"175,261 RLU"
3,B3,"2,570,070 RLU"
4,B4,"1,400,780 RLU"
5,B5,"4,805,980 RLU"
6,B6,"377,642 RLU"
7,B7,"854,223 RLU"

# Assay: Luminescence at 1 mM CS0280 (Table 11)
# Type: biochemical
# Conditions: 1 mM substrate; 1 mM ATP; BrightGlo Buffer
# Text: as §1
row,Molecule,Vmax (RLU) CS0280 BrightGlo Buffer
1,B1,"1,368,890 RLU"
2,B2,"484,293 RLU"
3,B3,"1,803,730 RLU"
4,B4,"4,644,970 RLU"
5,B5,"1,490,130 RLU"
6,B6,"753,523 RLU"
7,B7,"809,566 RLU"

# Same assay, conditions: 1 mM substrate; 1 mM ATP; Detection Reagent Buffer
row,Molecule,Vmax (RLU) CS0280 Detection Reagent Buffer
1,B1,"57,404 RLU"
2,B2,"11,418 RLU"
3,B3,"90,671 RLU"
4,B4,"62,606 RLU"
5,B5,"76,615 RLU"
6,B6,"16,392 RLU"
7,B7,"22,493 RLU"

# Assay: Kinetic analysis of thermostable variants with D/L-luciferin (Tables 13, 14)
# Type: biochemical
# Conditions: BrightGlo Buffer, 2 mM ATP
# Text: (§2) Tables 13 and 14 include representative results of kinetic analysis of the thermostable variants with D/L luciferin, CS0333, and CS0280. The panel of enzyme variants highlight amino acid substitutions that further improve upon MK0137 in maximum luminescence (Vmax) or Km in different buffers with the different substrates tested (D/L-luciferin, CS0333, and CS0280). In particular, enzyme variants MK0151 and MK153 show improvements relative to MK0137 across multiple buffers with multiple substrates.
Molecule,Km,Vmax (RLU)
B1,0.0482 µM,"351,895 RLU"
B2,0.0583 µM,"1,055,203 RLU"
B3,0.176 µM,"1,081,804 RLU"
B4,0.0804 µM,"550,291 RLU"
B5,0.0834 µM,"924,955 RLU"
B6,0.0613 µM,"1,244,361 RLU"
B7,0.108 µM,"2,997,269 RLU"

# Same assay, conditions: Detection Reagent Buffer, 2 mM ATP
Molecule,Km,Vmax (RLU)
B1,0.26 µM,"33,641 RLU"
B2,0.395 µM,"60,231 RLU"
B3,0.435 µM,"75,581 RLU"
B4,0.527 µM,"22,671 RLU"
B5,0.265 µM,"123,752 RLU"
B6,0.373 µM,"144,242 RLU"
B7,0.356 µM,"342,134 RLU"

# Assay: Kinetic analysis of thermostable variants with CS0333 (Tables 13, 14)
# Type: biochemical
# Conditions: BrightGlo Buffer, 2 mM ATP
# Text: as §2
Molecule,Km,Vmax (RLU)
B1,4.89 µM,"1,336,251 RLU"
B2,4.09 µM,"519,457 RLU"
B3,6.66 µM,"4,114,986 RLU"
B4,7.88 µM,"1,487,388 RLU"
B5,6.45 µM,"4,586,290 RLU"
B6,7.16 µM,"793,473 RLU"
B7,10.6 µM,"1,706,369 RLU"

# Same assay, conditions: Detection Reagent Buffer, 2 mM ATP
Molecule,Km,Vmax (RLU)
B1,48.4 µM,"353,432 RLU"
B2,56.8 µM,"49,798 RLU"
B3,22 µM,"822,270 RLU"
B4,126 µM,"301,956 RLU"
B5,37.6 µM,"727,712 RLU"
B6,116 µM,"174,991 RLU"
B7,230 µM,"409,320 RLU"

# Assay: Kinetic analysis of thermostable variants with CS0280 (Tables 13, 14)
# Type: biochemical
# Conditions: BrightGlo Buffer, 2 mM ATP
# Text: as §2
Molecule,Km,Vmax (RLU)
B1,5.6 µM,"652,464 RLU"
B2,5.74 µM,"330,383 RLU"
B3,7.71 µM,"1,098,792 RLU"
B4,8.07 µM,"570,972 RLU"
B5,4.88 µM,"534,004 RLU"
B6,9.12 µM,"378,264 RLU"
B7,41.7 µM,"449,576 RLU"

# Same assay, conditions: Detection Reagent Buffer, 2 mM ATP
Molecule,Km,Vmax (RLU)
B1,678 µM,"44,058 RLU"
B2,848 µM,"10,047 RLU"
B3,474 µM,"88,269 RLU"
B4,798 µM,"32,480 RLU"
B5,632 µM,"58,187 RLU"
B6,1210 µM,"21,620 RLU"
B7,954 µM,"24,533 RLU"
